Test results as given in doi:10.1101/797431 (bioRxiv, 2019).

Target: E. coli RecQ helicase, wild type (E. coli, UniProt P15043 1-609)
Assay: fluorescence polarisation

Sequence of E. coli RecQ helicase, wild type (P15043 whole entry): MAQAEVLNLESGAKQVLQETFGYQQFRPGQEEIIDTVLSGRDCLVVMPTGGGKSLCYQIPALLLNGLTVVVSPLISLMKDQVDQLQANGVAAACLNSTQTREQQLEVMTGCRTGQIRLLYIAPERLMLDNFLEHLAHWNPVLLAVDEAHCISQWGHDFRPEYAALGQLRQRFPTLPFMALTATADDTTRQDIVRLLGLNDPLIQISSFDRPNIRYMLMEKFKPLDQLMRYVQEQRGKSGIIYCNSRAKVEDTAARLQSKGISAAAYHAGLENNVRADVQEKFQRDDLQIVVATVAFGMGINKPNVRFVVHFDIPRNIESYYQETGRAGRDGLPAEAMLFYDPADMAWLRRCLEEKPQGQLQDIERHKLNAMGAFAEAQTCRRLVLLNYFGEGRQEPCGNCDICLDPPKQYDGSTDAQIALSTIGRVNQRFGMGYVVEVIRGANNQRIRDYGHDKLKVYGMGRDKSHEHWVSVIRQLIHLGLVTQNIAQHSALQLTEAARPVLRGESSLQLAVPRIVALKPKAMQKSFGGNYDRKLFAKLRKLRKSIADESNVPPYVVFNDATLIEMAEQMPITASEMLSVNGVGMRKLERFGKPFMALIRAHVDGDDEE

MDFDDDIPF (fluorescein on the N-terminus) [N-terminally fluorescein-labeled SSB C-terminal peptide (Flu-MDFDDDIPF)]: binds.
